According to article doi:10.1101/2023.01.09.523258 (bioRxiv, 2023):

Molecular target: the molecule itself
Experiment: native MS

B1: Conalbumin (Ovotransferrin/OVT) from chicken egg white (natural protein, UniProt P02789 20-705, looked up)
chain: APPKSVIRWCTISSPEEKKCNNLRDLTQQERISLTCVQKATYLDCIKAIANNEADAISLDGGQAFEAGLAPYKLKPIAAEVYEHTEGSTTSYYAVAVVKKGTEFTVNDLQGKTSCHTGLGRSAGWNIPIGTLLHRGAIEWEGIESGSVEQAVAKFFSASCVPGATIEQKLCRQCKGDPKTKCARNAPYSGYSGAFHCLKDGKGDVAFVKHTTVNENAPDQKDEYELLCLDGSRQPVDNYKTCNWARVAAHAVVARDDNKVEDIWSFLSKAQSDFGVDTKSDFHLFGPPGKKDPVLKDLLFKDSAIMLKRVPSLMDSQLYLGFEYYSAIQSMRKDQLTPSPRENRIQWCAVGKDEKSKCDRWSVVSNGDVECTVVDETKDCIIKIMKGEADAVALDGGLVYTAGVCGLVPVMAERYDDESQCSKTDERPASYFAVAVARKDSNVNWNNLKGKKSCHTAVGRTAGWVIPMGLIHNRTGTCNFDEYFSEGCAPGSPPNSRLCQLCQGSGGIPPEKCVASSHEKYFGYTGALRCLVEKGDVAFIQHSTVEENTGGKNKADWAKNLQMDDFELLCTDGRRANVMDYRECNLAEVPTHAVVVRPEKANKIRDLLERQEKRFGVNGSEKSKFMMFESQNKDLLFKDLTKCLFKVREGTTYKEFLGDKFYTVISSLKTCNPSDILQMCSFLEGK
For B1, the “stoichiometry N” value was 2.
